Test [1] has as its target HLA-A*02:03. Kind of test: IEDB peptide-MHC binding, purified MHC/competitive/fluorescence; filed as Kd, often an IC50 or EC50 that approximates it; ≥ and ≤ were set here for values at or beyond the usual limits of such assays.
The next test addresses HLA-A*02:06. The description is as above. The conditions noted are these: source organism: Human immunodeficiency virus 1.
Test [2] has as its target HLA-A*68:02. The description is as above.
In a further test the target is HLA-A*69:01. Described as above.
Test [3] deals with HLA-A*02:01. The test is described as above.
The next test concerns the target HLA-A*30:01. The test is described as above. The note with it: source organism: Human immunodeficiency virus 1.
The target of a further test is HLA-A*31:01. Described as above. The note with it: source organism: Human immunodeficiency virus 1.
The target of a further test is HLA-B*39:01. The description is as above.
Test [4] deals with HLA-A*02:16. The test is described as above. The conditions noted are these: source organism: Burkholderia pseudomallei K96243.
Test [5] deals with HLA-A*02:01. Kind of test: IEDB peptide-MHC binding, purified MHC/competitive/fluorescence; ≥ and ≤ were set here for values at or beyond the usual limits of such assays. The note with it: source organism: Zaire ebolavirus.
For the next test, the target named is HLA-A*24:02. The description is as above. The conditions noted are these: source organism: Zaire ebolavirus.
The target of the next test is HLA-B*07:02. Described as above. The note with it: source organism: Zaire ebolavirus.
In the next test the target is HLA-B*08:01. Described as above. The conditions noted are these: source organism: Zaire ebolavirus.
The target in test [6] is HLA-B*15:01. Described as above. The note with it: source organism: Zaire ebolavirus.
Test [7] deals with HLA-A*02:12. Kind of test: IEDB peptide-MHC binding, purified MHC/competitive/fluorescence; filed as Kd, often an IC50 or EC50 that approximates it; ≥ and ≤ were set here for values at or beyond the usual limits of such assays.
Test [8] addresses HLA-A*02:19. The test is described as above.
In test [9] the target is HLA-A*03:01. The description is as above.
Another test concerns the target HLA-A*26:01. The test is described as above.
A further test concerns the target HLA-A*29:02. Described as above.
A further test deals with HLA-B*18:01. The test is described as above.
In another test the target is HLA-B*27:03. The description is as above.
The next test deals with HLA-B*51:01. Described as above.
In a further test the target is HLA-A*24:03. The description is as above.
The target of test [10] is HLA-B*15:01. The description is as above. The note with it: source organism: Entamoeba dispar SAW760.
For a further test, the target named is HLA-B*46:01. The test is described as above.
Another test addresses HLA-B*57:01. The test is described as above.
Test [11] has as its target HLA-A*02:03. Put plainly: IEDB peptide-MHC binding, purified MHC/direct/fluorescence; filed as Kd, often an IC50 or EC50 that approximates it; ≥ and ≤ were set here for values at or beyond the usual limits of such assays. The note with it: source organism: Orthohantavirus andesense.
The target of the next test is HLA-A*02:11. The test is described as above. The conditions noted are these: source organism: Orthohantavirus andesense.
In test [12] the target is HLA-A*02:12. Described as above. The note with it: source organism: Orthohantavirus andesense.
Test [13] deals with HLA-A*02:16. The test is described as above. The conditions noted are these: source organism: Orthohantavirus andesense.
In test [14] the target is HLA-A*02:19. The description is as above. The conditions noted are these: source organism: Orthohantavirus andesense.
Test [15] concerns the target HLA-A*03:01. Described as above. The conditions noted are these: source organism: Orthohantavirus andesense.
The target in test [16] is HLA-A*68:02. The test is described as above. The conditions noted are these: source organism: Orthohantavirus andesense.
The next test deals with HLA-B*15:17. Put plainly: IEDB peptide-MHC binding, purified MHC/competitive/fluorescence; filed as Kd, often an IC50 or EC50 that approximates it; ≥ and ≤ were set here for values at or beyond the usual limits of such assays. The note with it: source organism: Orthohantavirus andesense.
Where [17] appears, read: source organism: Human immunodeficiency virus 1.
Where [18] appears, read: source organism: Cryptosporidium parvum Iowa II.
Setting [19] is: source organism: Entamoeba dispar SAW760.
[20] abbreviates: source organism: Orthohantavirus andesense.

For the sequence EELRSLFNTI, the Kd with HLA-A*02:03 [1] (setting [17]) is at least 20 µM; with HLA-A*02:06 it was 1.14 µM; with HLA-A*68:02 [2] (setting [17]), at least 20 µM.
Consider EELRSLFNTV, for which the Kd with HLA-A*02:06 is 0.302 µM; with HLA-A*68:02 [2] (setting [17]), 0.325 µM; with HLA-A*69:01 (setting [17]) it was 0.301 µM.
With EKLKSLFNTI, the Kd with HLA-A*02:01 [3] (setting [17]) was at least 20 µM; with HLA-A*02:03 [1] (setting [17]), 0.0368 µM; with HLA-A*02:06, 0.00183 µM; with HLA-A*30:01, 0.0207 µM; in the test with HLA-A*31:01, at least 20 µM; with HLA-A*68:02 [2] (setting [17]) it was at least 20 µM. The Kd with HLA-B*39:01 (setting [17]) came out at 0.641 µM.
In the case of ELAKPWPGA, the Kd with HLA-A*02:01 [3] (source organism: Burkholderia pseudomallei K96243) was 1.21 µM; with HLA-A*02:16 [4], at least 20 µM.
Take FSILNRKAI: the IC50 was at least 235 µM with HLA-A*02:01 [5]; 5.56 µM in the test with HLA-A*24:02; 46.5 µM with HLA-B*07:02; 21.6 µM with HLA-B*08:01; 35.8 µM with HLA-B*15:01 [6].
For the sequence KIFKVTGEF, the Kd with HLA-A*02:01 [3] (setting [18]), with HLA-A*02:03 [1] (setting [18]), with HLA-A*02:12 [7] (setting [18]), with HLA-A*02:19 [8] (setting [18]), with HLA-A*03:01 [9] (setting [18]) and with HLA-A*26:01 (setting [18]) was at least 20 µM throughout. Also, the Kd was 0.735 µM in the test with HLA-A*29:02 (setting [18]); at least 20 µM with HLA-A*68:02 [2] (setting [18]); at least 20 µM with HLA-A*69:01 (setting [18]); at least 20 µM with HLA-B*18:01 (setting [18]); at least 20 µM with HLA-B*27:03 (setting [18]); at least 20 µM with HLA-B*39:01 (setting [18]). The sequence further gave a Kd with HLA-B*51:01 (setting [18]) of at least 20 µM.
In the case of LVGNTLTTC, the Kd in the test with HLA-A*02:01 [3] (setting [19]) is at least 20 µM; in the test with HLA-A*02:03 [1] (setting [19]), at least 20 µM; with HLA-A*02:12 [7] (setting [19]) it was 4.55 µM; with HLA-A*02:19 [8] (setting [19]), at least 20 µM; with HLA-A*03:01 [9] (setting [19]), at least 20 µM; with HLA-A*24:03 (setting [19]), at least 20 µM. Also, the Kd with HLA-A*26:01 (setting [19]), with HLA-A*29:02 (setting [19]), with HLA-B*15:01 [10], with HLA-B*18:01 (setting [19]), with HLA-B*27:03 (setting [19]) and in the test with HLA-B*39:01 (setting [19]) was at least 20 µM throughout. The dissociation constant (Kd) with HLA-B*46:01 (setting [19]), with HLA-B*51:01 (setting [19]) and with HLA-B*57:01 (setting [19]) was at least 20 µM each time.
For VWKQLFPEL, the Kd with HLA-A*02:03 [11], in the test with HLA-A*02:11, with HLA-A*02:12 [12], with HLA-A*02:16 [13], with HLA-A*02:19 [14] and with HLA-A*03:01 [15] was at least 20 µM each time. Further, the Kd in the test with HLA-A*68:02 [16] was at least 20 µM; in the test with HLA-A*02:01 [3] (setting [20]), at least 20 µM; in the test with HLA-A*24:03 (setting [20]) it was 0.0105 µM; with HLA-A*26:01 (setting [20]) it was at least 20 µM; with HLA-A*69:01 (setting [20]), at least 20 µM; with HLA-B*15:17, at least 20 µM. In addition, the Kd with HLA-B*18:01 (setting [20]), with HLA-B*27:03 (setting [20]), in the test with HLA-B*39:01 (setting [20]), with HLA-B*46:01 (setting [20]), in the test with HLA-B*51:01 (setting [20]) and in the test with HLA-B*57:01 (setting [20]) was at least 20 µM throughout.

For the origin of these results see the Immune Epitope Database (IEDB).
